Test results reported in patent US20180155451A1 (published 2018).

B1: GpH7-A5/GpH7-B3 variant D265_15Y/GpL16-k0 (antibody, human IgG1, kappa)
heavy 1: not shown
heavy 2: not shown
light: DIVMTQSPLSLPVTPGEPASISCQASESLVHSNRNTYLHWYLQKPGQSPQLLIYKVSNRFSGVPDRFSGSGSGTDFTLKISRVEAEDVGVYYCSQNTHVPPTFGQGTKVEIERTVAAPSVFIFPPSDEQLKSGTASVVCLLNNFYPREAKVQWKVDNALQSGNSQESVTEQDSKDSTYSLSSTLTLSKADYEKHKVYACEVTHQGLSSPVTKSFNRGEC
notes: heterodimerized antibody, mutation in the GpH7-B3 chain only; also called He Ab
B2: GpH7-A5/GpH7-B3 variant D270_01G/GpL16-k0 (antibody, human IgG1, kappa)
heavy 1: not shown
heavy 2: not shown
light: DIVMTQSPLSLPVTPGEPASISCQASESLVHSNRNTYLHWYLQKPGQSPQLLIYKVSNRFSGVPDRFSGSGSGTDFTLKISRVEAEDVGVYYCSQNTHVPPTFGQGTKVEIERTVAAPSVFIFPPSDEQLKSGTASVVCLLNNFYPREAKVQWKVDNALQSGNSQESVTEQDSKDSTYSLSSTLTLSKADYEKHKVYACEVTHQGLSSPVTKSFNRGEC
notes: Heterodimerized IgG1; mutation only in the GpH7-B3 chain; also called He Ab
B3: GpH7-A5/GpH7-B3 variant V266_12R/GpL16-k0 (antibody, human IgG1, kappa)
heavy 1: not shown
heavy 2: not shown
light: DIVMTQSPLSLPVTPGEPASISCQASESLVHSNRNTYLHWYLQKPGQSPQLLIYKVSNRFSGVPDRFSGSGSGTDFTLKISRVEAEDVGVYYCSQNTHVPPTFGQGTKVEIERTVAAPSVFIFPPSDEQLKSGTASVVCLLNNFYPREAKVQWKVDNALQSGNSQESVTEQDSKDSTYSLSSTLTLSKADYEKHKVYACEVTHQGLSSPVTKSFNRGEC
notes: as for B1
B4: GpH7-A5/GpH7-B3 variant D270_10E/GpL16-k0 (antibody, human IgG1, kappa)
heavy 1: not shown
heavy 2: not shown
light: DIVMTQSPLSLPVTPGEPASISCQASESLVHSNRNTYLHWYLQKPGQSPQLLIYKVSNRFSGVPDRFSGSGSGTDFTLKISRVEAEDVGVYYCSQNTHVPPTFGQGTKVEIERTVAAPSVFIFPPSDEQLKSGTASVVCLLNNFYPREAKVQWKVDNALQSGNSQESVTEQDSKDSTYSLSSTLTLSKADYEKHKVYACEVTHQGLSSPVTKSFNRGEC
notes: as for B2
B5: GpH7-A5/GpH7-B3 variant D270_03V/GpL16-k0 (antibody, human IgG1, kappa)
heavy 1: not shown
heavy 2: not shown
light: DIVMTQSPLSLPVTPGEPASISCQASESLVHSNRNTYLHWYLQKPGQSPQLLIYKVSNRFSGVPDRFSGSGSGTDFTLKISRVEAEDVGVYYCSQNTHVPPTFGQGTKVEIERTVAAPSVFIFPPSDEQLKSGTASVVCLLNNFYPREAKVQWKVDNALQSGNSQESVTEQDSKDSTYSLSSTLTLSKADYEKHKVYACEVTHQGLSSPVTKSFNRGEC
notes: as for B2
B6: GpH7-A5/GpH7-B3 variant T335_07I/GpL16-k0 (antibody, human IgG1, kappa)
heavy 1: not shown
heavy 2: not shown
light: DIVMTQSPLSLPVTPGEPASISCQASESLVHSNRNTYLHWYLQKPGQSPQLLIYKVSNRFSGVPDRFSGSGSGTDFTLKISRVEAEDVGVYYCSQNTHVPPTFGQGTKVEIERTVAAPSVFIFPPSDEQLKSGTASVVCLLNNFYPREAKVQWKVDNALQSGNSQESVTEQDSKDSTYSLSSTLTLSKADYEKHKVYACEVTHQGLSSPVTKSFNRGEC
notes: heterodimerized IgG1, mutation in one H chain only; also called He Ab
B7: GpH7-A5/GpH7-B3 variant D270_08L/GpL16-k0 (antibody, human IgG1, kappa)
heavy 1: not shown
heavy 2: not shown
light: DIVMTQSPLSLPVTPGEPASISCQASESLVHSNRNTYLHWYLQKPGQSPQLLIYKVSNRFSGVPDRFSGSGSGTDFTLKISRVEAEDVGVYYCSQNTHVPPTFGQGTKVEIERTVAAPSVFIFPPSDEQLKSGTASVVCLLNNFYPREAKVQWKVDNALQSGNSQESVTEQDSKDSTYSLSSTLTLSKADYEKHKVYACEVTHQGLSSPVTKSFNRGEC
notes: as for B2
B8: GpH7-A5/GpH7-B3 variant D270_07I/GpL16-k0 (antibody, human IgG1, kappa)
heavy 1: not shown
heavy 2: not shown
light: DIVMTQSPLSLPVTPGEPASISCQASESLVHSNRNTYLHWYLQKPGQSPQLLIYKVSNRFSGVPDRFSGSGSGTDFTLKISRVEAEDVGVYYCSQNTHVPPTFGQGTKVEIERTVAAPSVFIFPPSDEQLKSGTASVVCLLNNFYPREAKVQWKVDNALQSGNSQESVTEQDSKDSTYSLSSTLTLSKADYEKHKVYACEVTHQGLSSPVTKSFNRGEC
notes: as for B2

Assays:
[1] = target: T1, FcγRIIb (human, UniProt P31994 43-217); assay: SPR (Biacore), antibody captured, FcγR as analyte; relative binding
T1 construct: extracellular domain; also called FcgRIIb; 2b
T1 sequence (looked up): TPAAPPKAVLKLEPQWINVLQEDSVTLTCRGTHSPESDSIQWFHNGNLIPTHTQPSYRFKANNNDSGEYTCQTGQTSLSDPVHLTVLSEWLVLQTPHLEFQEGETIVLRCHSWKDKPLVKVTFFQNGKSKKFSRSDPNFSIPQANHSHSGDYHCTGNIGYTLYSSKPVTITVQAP
Procedure: The heterodimerized antibodies He Abs in which one of the H chains was introduced with an alteration were assayed for their binding activities to each activating FcγR and inhibitory FcγR according to the method described in Example 4. […] The activating FcγRs in FIGS. 26, 27, 28, and 29 are FcγRIa, FcγRIIa (R), FcγRIIa (H), and FcγRIIIa, respectively.
Analysis of interaction between objective antibody and the FcγR was carried out using Biacore T100 (GE Healthcare). HBS-EP+ (GE Healthcare) was used as the running buffer, and the measurement temperature was set to 25° C. Chips produced by immobilizing the antigen peptide by the amine coupling method to a Series S Sencor Chip CM5 (GE Healthcare), or alternatively, chips produced by allowing preliminarily biotinylated antigen peptides to interact with and immobilize onto a Series S Sensor Chip SA (certified) (GE Healthcare) were used. Antibodies of interest were captured onto an antigen peptide-immobilized chip, and allowed to interact to each FcγR diluted with running buffer. To regenerate and repeatedly use the chip, the antibodies captured on the chip were washed off by reacting 10 mM glycine-HCl, pH 1.5.

[2] = target: T2, FcγRIIa H (FcγRIIa, type H allotype, His at position 131), extracellular domain with C-terminal His tag (human, UniProt P12318 34-217); assay: ratio of He/Con_2aH to He/Con_2b (FcγRIIa H over FcγRIIb), SPR
T2 construct: extracellular domain; Soluble receptor expressed in FreeStyle293 cells; analyte in Biacore; also called FcgRIIa H; 2aH; not shown: C-terminal His tag
T2 sequence (looked up): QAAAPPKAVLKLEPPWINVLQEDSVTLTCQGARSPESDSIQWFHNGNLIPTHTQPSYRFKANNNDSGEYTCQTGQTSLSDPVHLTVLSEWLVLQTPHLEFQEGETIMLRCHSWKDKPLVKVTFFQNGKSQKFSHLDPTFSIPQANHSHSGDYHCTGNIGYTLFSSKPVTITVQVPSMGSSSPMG

[3] = target: T3, FcγRIIb, extracellular domain with C-terminal His tag (human, UniProt P31994 43-217); assay: SPR (Biacore), captured antibody, FcγR as analyte
T3 construct: extracellular domain; Soluble receptor expressed in FreeStyle293 cells; analyte in Biacore; also called FcgRIIb; 2b; not shown: C-terminal His tag
T3 sequence (looked up): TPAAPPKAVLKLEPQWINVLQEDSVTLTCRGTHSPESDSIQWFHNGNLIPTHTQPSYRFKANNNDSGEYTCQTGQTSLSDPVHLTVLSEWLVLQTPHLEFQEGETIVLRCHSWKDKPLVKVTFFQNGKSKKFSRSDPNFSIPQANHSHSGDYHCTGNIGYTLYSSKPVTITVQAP

[4] = target: T2, FcγRIIa H (FcγRIIa, type H allotype, …); assay: SPR (Biacore), captured antibody, FcγR as analyte
[5] = target: T4, FcγRIIIa extracellular domain with C-terminal His tag (human, UniProt P08637 17-208); assay: SPR, relative to GpH7-A5/GpH7-B3/GpL16-k0
T4 construct: extracellular domain; also called FcgRIIIa; 3a
T4 sequence (P08637 17-208): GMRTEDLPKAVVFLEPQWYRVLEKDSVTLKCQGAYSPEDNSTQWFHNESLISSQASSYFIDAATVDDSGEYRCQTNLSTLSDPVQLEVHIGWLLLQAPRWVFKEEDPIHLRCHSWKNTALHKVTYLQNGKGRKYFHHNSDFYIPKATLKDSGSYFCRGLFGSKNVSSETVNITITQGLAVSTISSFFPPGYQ

Binder	He/Con_2b (IIb binding) [1]	He_2aH/2b (IIaH/IIb) [2]	He/Con_2b [3]	He/Con_2aH [4]	He/Con_3a [5]
B1	0.6 % of GpH7-A5/GpH7-B3/GpL16-k0 (=100)				
B2		1.72	30.5 relative, GpH7-A5/GpH7-B3/GpL16-k0 = 100	52.5 relative, GpH7-A5/GpH7-B3/GpL16-k0 = 100	
B3	-1.1 % of GpH7-A5/GpH7-B3/GpL16-k0 (=100)				
B4		1.34	76.5 relative, GpH7-A5/GpH7-B3/GpL16-k0 = 100	102 relative, GpH7-A5/GpH7-B3/GpL16-k0 = 100	
B5		1.56	39.5 relative, GpH7-A5/GpH7-B3/GpL16-k0 = 100	61.8 relative, GpH7-A5/GpH7-B3/GpL16-k0 = 100	
B6					107 % of control (=100)
B7		1.41	53.6 relative, GpH7-A5/GpH7-B3/GpL16-k0 = 100	75.8 relative, GpH7-A5/GpH7-B3/GpL16-k0 = 100	
B8		1.54	41.5 relative, GpH7-A5/GpH7-B3/GpL16-k0 = 100	64 relative, GpH7-A5/GpH7-B3/GpL16-k0 = 100	
